According to doi:10.1101/2020.12.19.423584 (bioRxiv, 2020):

Biological target: purified SARS-CoV-2 N protein produced in pupae (SARS-CoV-2, UniProt P0DTC9 1-419)
Test: ELISA

B1: Niemann-Pick type C1 (NPC1) receptor, endogenous human (natural protein)
chain: QSCVWYGECGIAYGDKRYNCEYSGPPKPLPKDGYDLVQELCPGFFFGNVSLCCDVRQLQTLKDNLQLPLQFLSRCPSCFYNLLNLFCELTCSPRQSQFLNVTATEDYVDPVTNQTKTNVKELQYYVGQSFANAMYNACRDVEAPSSNDKALGLLCGKDADACNATNWIEYMFNKDNGQAPFTITPVFSDFPVHGMEPMNNATKGCDESVDEVTAPCSCQDCSIVCGPKPQPPPPPAPWTILGLDAMYVIMWITYMAFLLVFFGAFFAVWCYRKRYFVSEYTPIDSNIAFSVNASDKGEASCCDPVSAAFEGCLRRLFTRWGSFCVRNPGCVIFFSLVFITACSSGLVFVRVTTNPVDLWSAPSSQARLEKEYFDQHFGPFFRTEQLIIRAPLTDKHIYQPYPSGADVPFGPPLDIQILHQVLDLQIAIENITASYDNETVTLQDICLAPLSPYNTNCTILSVLNYFQNSHSVLDHKKGDDFFVYADYHTHFLYCVRAPASLNDTSLLHDPCLGTFGGPVFPWLVLGGYDDQNYNNATALVITFPVNNYYNDTEKLQRAQAWEKEFINFVKNYKNPNLTISFTAERSIEDELNRESDSDVFTVVISYAIMFLYISLALGHMKSCRRLLVDSKVSLGIAGILIVLSSVACSLGVFSYIGLPLTLIVIEVIPFLVLAVGVDNIFILVQAYQRDERLQGETLDQQLGRVLGEVAPSMFLSSFSETVAFFLGALSVMPAVHTFSLFAGLAVFIDFLLQITCFVSLLGLDIKRQEKNRLDIFCCVRGAEDGTSVQASESCLFRFFKNSYSPLLLKDWMRPIVIAIFVGVLSFSIAVLNKVDIGLDQSLSMPDDSYMVDYFKSISQYLHAGPPVYFVLEEGHDYTSSKGQNMVCGGMGCNNDSLVQQIFNAAQLDNYTRIGFAPSSWIDDYFDWVKPQSSCCRVDNITDQFCNASVVDPACVRCRPLTPEGKQRPQGGDFMRFLPMFLSDNPNPKCGKGGHAAYSSAVNILLGHGTRVGATYFMTYHTVLQTSADFIDALKKARLIASNVTETMGINGSAYRVFPYSVFYVFYEQYLTIIDDTIFNLGVSLGAIFLVTMVLLGCELWSAVIMCATIAMVLVNMFGVMWLWGISLNAVSLVNLVMSCGISVEFCSHITRAFTVSMKGSRVERAEEALAHMGSSVFSGITLTKFGGIVVLAFAKSQIFQIFYFRMYLAMVLLGATHGLIFLPVLLSYIGPSVNKAKSCATEERYKGTERERLLNF
B1: binds.
